Data on two substances can be found in PMC11711613.

Where “and” joins values, the source holds several entries; their conditions need not be identical. Identical values can stand only once.

Test [1] addresses RctB domain IV (RctB^IV, amino acids 532 to 658) (Vibrio cholerae N16961). Description: SEC; analytical SEC, Superdex 200 10/300, 50 mM Hepes, 200 mM NaCl, 2 mM MgCl2, 1 mM TCEP, calibrated with gel filtration standards. In general terms: Size exclusion chromatography separates by hydrodynamic size, large species first.
For test [2], the target named is RctB, full length (Vibrio cholerae N16961). Briefly: cryo-EM 2D class averages; RctB at 0.25 mg/ml in 50 mM Hepes, 200 mM NaCl, 2 mM MgCl2, 1 mM TCEP; reference-free 2D classification.
Test [3] shares this target. Description: SEC; analytical SEC, Superdex 200 10/300, 50 mM Hepes, 200 mM NaCl, 2 mM MgCl2, 1 mM TCEP, calibrated with gel filtration standards.

Regarding “RctB domain IV (RctB^IV, amino acids 532 to 658) (domain or fragment)”, the stoichiometry N (commonly a count of units in the complex or per binding partner) in test [1] is 2.

As to RctB, full length (natural protein), the stoichiometry N was 2 and 4 in test [2]; 2 and 4 in test [3].
